B1: CPEB3 Ribozyme (parent)
chain: GGGGGCCACAGCAGAAGCGUUCACGUCGCGGCCCCUGUCAGAUUCUGGUGAAUCUGCGAAUUCUGCUGU

Variants of B1 are the subject of this series. Description: self-cleavage, relative activity (ratio to wild type); higher = more cleavage; co-transcriptional.
In the case of U26C C32A, the self-cleavage came out at 0.753.

On to U26G U55C, for which the self-cleavage was 0.787. Under U26G U55A stands 0.737; under G25U G37U, 0.103; under G25U G37A, 0.156. Under G25C U64C stands 0.181; under G25C U64G, 0.155; under U26C C57U, 0.408. Under C24U U55G stands 0.367; under C24U U55C, 0.391.

For C24U U55A, the self-cleavage came out at 0.651. Under C27A U49A stands 0.763; under U26G C66A, 0.533; under U26G C66U, 0.888. Under C27A C54U stands 0.602; under C27A C54G, 0.156; under G25A U26A, 0.186. Under U26A G41A stands 0.561; under U26A G41U, 0.67. As to G25A U44C, the self-cleavage is 0.0881.

As for G25U A59G, the self-cleavage is 0.174. Under U26G G28U stands 0.178; under U26G G28A, 0.183. Under G25A A51C stands 0.209; under U26G C29A, 0.329. Under U26A U62G stands 0.652; under U26A U62C, 0.669; under C24U C57A, 0.309.

On to U26G G48A, for which the self-cleavage was found to be 0.937. Under U26G G48C stands 0.959. Under U26A C29U stands 0.36; under U26A C29A, 0.46. Take U26C A42G: the self-cleavage was determined as 0.924. Under C27G A40G stands 0.243; under C27G A40U, 0.17; under U26A G48U, 0.928. Under C27G A60C stands 0.238.

On to G25C U53A, for which the self-cleavage was determined as 0.125. Under U26A A40U stands 0.531; under G25U C32U, 0.228; under G25U C32A, 0.162.

For the variant U26C C66U, the self-cleavage came out at 0.939. Under U26C U69G stands 1.06. As for G25C C27A, the self-cleavage came to 0.146. Under U26A U43A stands 0.846; under U26G G47A, 0.893; under U26G G47U, 0.916.

Consider G25A C57G, for which the self-cleavage is 0.129.

On to C27A C32U, for which the self-cleavage was found to be 0.543.

Turning to U26C G65U, the self-cleavage was found to be 0.604. Under U26G C45U stands 0.982; under G25C C34U, 0.219. Under G25U C29U stands 0.206; under C27A U46C, 0.621; under G25A C35A, 0.21. Take G25C U26A: the self-cleavage amounted to 0.252. Under G25C U26G stands 0.176; under G25C U26C, 0.319; under G25A G56A, 0.154. Consider G25A G56C, for which the self-cleavage is 0.213. Under G25A U55A stands 0.222. Under U26G C32U stands 0.922; under C24U G28U, 0.214; under C24U G28C, 0.191. Under C24U G28A stands 0.174; under U26G U62A, 0.818; under U26G U62G, 0.617. G25A G28A: the self-cleavage worked out at 0.131. Under G25A G28U stands 0.132. Under G25C G31A stands 0.217; under U26A G58U, 0.852; under U26A G58A, 0.627. Regarding U26A G58C, the self-cleavage was found to be 0.792. Under U26A G68C stands 0.964; under U26A G68U, 0.901; under G25U C45G, 0.133. Under C27A U53G stands 0.338. Under C27G C39A stands 0.166. For U26G U64G, the self-cleavage is 0.784.

For U26A U64C, the self-cleavage stood at 0.72. In the case of C24U U49C, the self-cleavage worked out at 0.84. Under C24U U49A stands 0.865; under G25U A60G, 0.229.

With G25U A60C, the self-cleavage stood at 0.132. Under G25U A60U stands 0.13; under C24U G41C, 0.303; under G25U G58U, 0.186.

Turning to G25A C66G, the self-cleavage turned out to be 0.223. Under G25A A40G stands 0.172. Under G25U C35U stands 0.139; under C27A C35G, 0.256.

On to C27A A52G, for which the self-cleavage was found to be 0.708. Under C27A A52U stands 0.547. Under U26C C39A stands 0.79. As to G25C U67C, the self-cleavage turned out to be 0.115. As to U26C G50A, the self-cleavage came out at 0.953.

G25C C33G: the self-cleavage is 0.235. Under C27A U36A stands 0.207; under G25A U49A, 0.155. Under G25A U46G stands 0.174.

Turning to G25A G50C, the self-cleavage was determined as 0.28. Turning to G25A G50A, the self-cleavage stood at 0.195. Under G25A G50U stands 0.267; under G25U A42G, 0.129. Under G25U G56C stands 0.158; under G25U G56U, 0.134. Under G25U G56A stands 0.171; under G25U U49A, 0.12.

C27A C29U: the self-cleavage is 0.21. Under C27A C29A stands 0.184; under U26A U55A, 0.745; under U26A A60C, 0.285. Under U26G G37C stands 0.162; under C27G A42U, 0.136.

As for U26A C35G, the self-cleavage was determined as 0.207. Under G25A C63A stands 0.104; under G25A C63G, 0.185; under U26A G56A, 0.748. Under G25A C54U stands 0.248. Under C24U U26C stands 0.626; under C24U U26A, 0.257.

C24U U26G: the self-cleavage worked out at 0.448.

For the variant G25C C35G, the self-cleavage is 0.124.

For the variant U26G U61C, the self-cleavage worked out at 0.418.

For the variant U26G U61A, the self-cleavage is 0.621.

Consider G25U U62A, for which the self-cleavage is 0.158. Consider G25U U62G, for which the self-cleavage came to 0.116. Under U26C U36G stands 0.123. As to G25C U36C, the self-cleavage was 0.24.

On to G25C U36A, for which the self-cleavage was 0.201. Under G25U U43A stands 0.0919. Under G25U U43G stands 0.148; under G25U U43C, 0.122. With U26C C34U, the self-cleavage amounted to 0.935. Under U26C C34A stands 0.731. Under G25C G41U stands 0.144.

Regarding U26A C27A, the self-cleavage amounted to 0.424. Under C24U U69C stands 1.02; under G25C G48C, 0.147; under C27A C57G, 0.298. Under U26A U44C stands 0.768; under U26G C27A, 0.458; under U26A A51G, 0.889. Under U26A A51C stands 0.871; under U26C U62G, 0.694. As to G25U G28U, the self-cleavage was found to be 0.145.

As to C27A C66U, the self-cleavage came to 0.516.

On to U26A G65C, for which the self-cleavage was found to be 0.466. In the case of U26A G65U, the self-cleavage amounted to 0.466. As to G25C G65A, the self-cleavage was determined as 0.216.

Consider U26A U61A, for which the self-cleavage turned out to be 0.515.

As to G25U C63G, the self-cleavage was 0.175.

As for U26C G68C, the self-cleavage was determined as 1.03. Under C27A G30U stands 0.232. Under G25C U46C stands 0.218; under C24U G47C, 0.915. Under U26G A42G stands 0.78; under G25C U69G, 0.309. G25C U69A: the self-cleavage amounted to 0.221. Regarding U26G A60G, the self-cleavage was found to be 0.631.

In the case of U26G A60C, the self-cleavage was determined as 0.361.

Take U26A A59C: the self-cleavage amounted to 0.322. Under G25U U61A stands 0.175; under G25U U61C, 0.179; under U26A C63U, 0.779. Under U26A C63G stands 0.507; under C27A A59G, 0.353.
